Columns and labels:
[1] = test system: T1, EefR (Escherichia coli ATCC 35218 (35218m, acrB-deficient)), ORF:f1625a7f; test: competition; settings: EMSA in binding buffer (Beyotime kit, composition not given), 25 °C, 20 min; 6% native PAGE at 4 °C; salt and pH not stated
T1 sequence: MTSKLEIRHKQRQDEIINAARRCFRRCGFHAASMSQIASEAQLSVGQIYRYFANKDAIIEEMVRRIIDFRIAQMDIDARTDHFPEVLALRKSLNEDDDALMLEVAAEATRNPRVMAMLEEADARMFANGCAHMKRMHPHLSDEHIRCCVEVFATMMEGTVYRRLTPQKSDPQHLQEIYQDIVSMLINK

[2] = test system: T1, EefR (Escherichia coli ATCC 35218 (35218m, acrB-deficient)), ORF:f1625a7f; test: EMSA; settings: EMSA in binding buffer (Beyotime kit, composition not given), 25 °C, 20 min; 6% native PAGE at 4 °C; salt and pH not stated

Sequence | binding [1] | binding [2]
CACAATCTCTTCATTATCAGAATATGCACCATGAATAAGATAAAAATACTTTCCATTACTTTGGAGAAACGTATAATCAGCAAAAATGAGAACGATCATTCTCACCAAGTGATAGGCCAGGAGACAGAA (double strand) [P1 cold probe] | binds | –
CACAATCTCTTCATTATCAGAATATGCACCATGAATAAGATAAAAATACTTTCCATTACTTTGGAGAAACGTATAATCAGCAAAAATGAGAACGATCATCCTCACCAAGTGATAGGCCAGGAGACAGAA (double strand) [M1 (one base mutated, MT-1)] | – | no binding
ACAGAATTAACCAATAGCGGGGGATATTAATCCCCCTTATTTCATTGCGAAATTCATTTCGCGATGCGGGTTCGTTATAACTGAATATCCCTGACATATCCTCATTAATTTTAATGAGGAGGGTATTTCTCACCCTGGAGAAAATA (double strand) [nonspecific probe (148 bp)] | no binding | –
CACAATCTCTTCATTATCAGAATATGCACCATGAATAAGATAAAAATACTTTCCATTACTTTGGAGAAACGTATAATCAGCAAAAATGAGAACGATCATTCTCACCAAGTGATAGGCCAGGAGACAGAA (double strand) [P1 (129 bp eefR upstream probe)] | – | binds
